B1: Neutrophil cytosol factor 4 (Homo sapiens), Q15080 (parent)
chain: MAVAQQLRAESDFEQLPDDVAISANIADIEEKRGFTSHFVFVIEVKTKGGSKYLIYRRYRQFHALQSKLEERFGPDSKSSALACTLPTLPAKVYVGVKQEIAEMRIPALNAYMKSLLSLPVWVLMDEDVRIFFYQSPYDSEQVPQALRRLRPRTRKVKSVSPQGNSVDRMAAPRAEALFDFTGNSKLELNFKAGDVIFLLSRINKDWLEGTVRGATGIFPLSFVKILKDFPEEDDPTNWLRCYYYEDTISTIKDIAVEEDLSSTPLLKDLLELTRREFQREDIALNYRDAEGDLVRLLSDEDVALMVRQARGLPSQKRLFPWKLHITQKDNYRVYNTMP
partner: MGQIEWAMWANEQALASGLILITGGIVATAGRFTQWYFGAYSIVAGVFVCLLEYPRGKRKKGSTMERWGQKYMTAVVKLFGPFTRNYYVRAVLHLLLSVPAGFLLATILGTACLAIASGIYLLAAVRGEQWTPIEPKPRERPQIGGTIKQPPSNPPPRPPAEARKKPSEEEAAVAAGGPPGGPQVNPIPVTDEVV
B2: Cytochrome b-245 light chain (Homo sapiens), P13498 (parent)
chain: B1 partner
partner: B1 chain
B3: Cytochrome b-245 light chain (Homo sapiens), P13498 (parent)
chain: B1 partner

The first experiment covers variants of B1. The conditions noted are these: with cy24a_human CYBA.
Turning to W207R, the “effect of a mutation on the interaction” value is “decreasing interaction”.

Variants of B2 are the subject of another experiment. The following applies: with ncf4_human NCF4, Q15080.
As to P156Q, the “effect of a mutation on the interaction” value was “decreasing interaction”.

Variants of B3 are the subject of the next experiment. The following applies: with ncf1_human NCF1, P14598.
Sequence of ncf1_human NCF1, P14598 (P14598 whole entry): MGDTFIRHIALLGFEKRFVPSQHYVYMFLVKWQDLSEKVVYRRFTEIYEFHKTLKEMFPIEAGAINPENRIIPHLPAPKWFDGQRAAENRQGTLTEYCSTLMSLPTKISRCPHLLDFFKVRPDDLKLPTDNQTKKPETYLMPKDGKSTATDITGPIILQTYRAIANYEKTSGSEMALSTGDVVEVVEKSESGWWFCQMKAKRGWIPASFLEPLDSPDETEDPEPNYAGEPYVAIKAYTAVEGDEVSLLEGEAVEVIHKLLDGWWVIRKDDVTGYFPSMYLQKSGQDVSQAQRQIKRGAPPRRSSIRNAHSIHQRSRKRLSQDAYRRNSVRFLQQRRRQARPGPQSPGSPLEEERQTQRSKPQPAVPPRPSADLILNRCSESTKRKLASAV
With P156Q, the “effect of a mutation on the interaction” value is “decreasing interaction”.

For the origin of these results see IntAct's records for PubMed 17803994.
